# From PMC3517013
# B1: VldW (Streptomyces hygroscopicus subsp. limoneus) (protein)
# chain: MTGSVPIVDLEAWRAADEENRASLAEIIDGALHTVGTFLLAGHGVPAELTARMRTAGRSFFDLPWEKKEPHAVQRPHDNGWRGLVKHRTDTIEGTGGAPDLHEAFHMGPTHRTGDDAFDALYYPANKWPAELPELRETALAYTAHMTRVAGAVMEMLAGVLGLEPAFFTSRCEHATWTQSVNWYPSLDTVGQTAEGQMRVGPHTDFGTITLLDRQQGVSGLEVWSEEDGWFAPPFVEGTLLVNLGDLMHQWTDGRWRSLRHRVLAPSASAPQEELVSLVYFFDADPEAELVPLAAPVGGGAGMPTVNVGETILKKNIQMLTDLKGHGLFQGELSLSRPGSADSPGSSPADDHPSRPGRHPAQGPQ
# Columns and labels:
# purified protein [1] = substrate: OCC1=C[C@H](N[C@H]2C[C@H](CO)[C@@H](O[C@@H]3O[C@H](CO)[C@@H](O)[C@H](O)[C@H]3O)[C@H](O)[C@H]2O)[C@H](O)[C@@H](O)[C@@H]1O; experiment: purified protein; assay type: biochemical, Streptomyces hygroscopicus; settings: apparent; co-substrate α-ketoglutarate, Fe(II); hydroxylation at C-6'
# purified protein [2] = substrate: O=C(O)CCC(=O)C(=O)O; experiment: purified protein; assay type: biochemical, Streptomyces hygroscopicus; settings: apparent; co-substrate validamycin A, Fe(II)
protein,measurement,setting,value
B1,Km,purified protein [1],303 ± 36 µM
same,kcat,purified protein [1],0.0162 ± 0.00233 s⁻¹
same,Km,purified protein [2],19 ± 3.5 µM
same,kcat,purified protein [2],0.0162 ± 0.00233 s⁻¹
